Results from article PMC9023255, “Mechanisms of substrate recognition and N6-methyladenosine demethylation revealed by crystal structures of ALKBH5–RNA complexes”.

Biological target: ALKBH5 74-292 (human, UniProt Q6P6C2 74-292)
Experiment: X-ray crystallography; Mn2+, sulfate in 2OG site (NOG added but not observed); 2.1 A, P32; GG(m6A)C ordered; Complex formation: 25 mM Tris pH 7.5, 400 uM protein, 333 uM RNA, 2 mM MnCl2, 2 or 10 mM NOG or 10 mM 2OG, on ice 30 min, then SEC in 25 mM Tris pH 7.5; mutant
Conditions: protein: recombinant; tags: N-terminal His6, removed by TEV protease; single strand

ALKBH5 74-292, sequence (Q6P6C2 74-292): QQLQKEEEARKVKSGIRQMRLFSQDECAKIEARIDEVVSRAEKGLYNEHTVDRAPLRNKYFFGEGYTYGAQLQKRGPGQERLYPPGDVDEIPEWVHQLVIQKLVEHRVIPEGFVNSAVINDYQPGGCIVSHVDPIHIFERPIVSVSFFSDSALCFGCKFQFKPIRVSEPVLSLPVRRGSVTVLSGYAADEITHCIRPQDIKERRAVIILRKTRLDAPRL

UGGACUGC (ssRNA, N6-methyladenosine at position 4 (m6A)) [8-mer m6A ssRNA]
binding result: binds
